Changes are numbered by the printed parent chain. One block for each binder: values may come before it.
Key:
human IL-31 [1] = biological target: T1, human IL-31 (human, UniProt Q6EBC2 24-164); test: cell-based or functional assay
T1 sequence (looked up): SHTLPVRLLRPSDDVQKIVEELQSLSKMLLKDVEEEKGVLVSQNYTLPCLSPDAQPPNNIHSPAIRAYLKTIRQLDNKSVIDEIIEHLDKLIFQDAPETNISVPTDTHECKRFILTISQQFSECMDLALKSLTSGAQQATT

cynomolgus IL-31-His = biological target: T2, cynomolgus IL-31-His (cynomolgus monkey (Macaca fascicularis), UniProt G7PJ78 24-163); test: SPR (Biacore T200), IL-31-His captured via anti-His antibody, scFv as analyte, 1:1 model
T2 construct: extracellular domain; also called cynomolgus monkey IL-31; cyno IL-31; not shown: His tag
T2 sequence: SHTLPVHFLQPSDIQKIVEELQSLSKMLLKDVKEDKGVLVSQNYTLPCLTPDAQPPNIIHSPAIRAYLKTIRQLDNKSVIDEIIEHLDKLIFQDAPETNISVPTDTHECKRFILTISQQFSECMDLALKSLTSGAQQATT

human IL-31 [2] = biological target: T1, human IL-31; test: cell-based or functional assay; remark: listed apart in the source

B1: PRO1900 (scFv)
chain: AFQLTQSPSSLSASVGDRVTITCQASQSIDSWLAWYQQKPGKPPKLLIYQASKLASGVPSRFSGSGSGTDYTLTISSLQPEDFATYYCQTYYGGGHIGWGFGTGTKVTVLGGGGGSGGGGSGGGGSGGGGSQSQLVESGGGRVQPGGSLRLSCAASGFSFSANYWICWVRQAPGKGLEWIVCIYIGSRADTYYAPWAKGRFTISKDNSKNTVYLQMNSLRAEDTATYFCARFSSGIYDLDRFFLWGQGTQVTVSS
- IC50, neutralization of hIL-31-induced signaling in IL-31RA/OSMR dimerization assay (human IL-31 [1]): 8.21 ng/mL

B2: PRO1902 (scFv)
chain: B1 chain with R142L, Y184S, T226V, Q250L
- Kd (cynomolgus IL-31-His): 3.38 nM
- koff (cynomolgus IL-31-His): 0.00247 s⁻¹
- kon (cynomolgus IL-31-His): 731000 M⁻¹ s⁻¹
- IC50, neutralization of hIL-31-induced signaling in IL-31RA/OSMR dimerization assay (human IL-31 [1]): 371 ng/mL

B4: PRO1901 (scFv)
chain: B1 chain with R142S
- Kd (cynomolgus IL-31-His): 1.14 nM
- koff (cynomolgus IL-31-His): 0.000569 s⁻¹
- kon (cynomolgus IL-31-His): 501000 M⁻¹ s⁻¹
- IC50, neutralization of hIL-31-induced signaling in IL-31RA/OSMR dimerization assay (human IL-31 [1]): 8.07 ng/mL

Now from value to binder:

- Kd (cynomolgus IL-31-His): 1.39 nM
- koff (cynomolgus IL-31-His): 0.000605 s⁻¹
- kon (cynomolgus IL-31-His): 434000 M⁻¹ s⁻¹
- IC50, neutralization of hIL-31-induced signaling in IL-31RA/OSMR dimerization assay (human IL-31 [1]): 7.98 ng/mL
B3: PRO1903 (scFv)
chain: B1 chain with D30E, R142L, T226V, Q250L

- Mean IC50, neutralization of human IL-31-induced signaling in IL-31RA/OSMR dimerization assay (human IL-31 [2]): 0.198 nM
B5: PRO2198 (bispecific antibody)
chain 1: DIQMTQSPSSLSARVGDRVTITCQASEDIESYLAWYQQKPGKAPKLLIYRASTLAYGVPSRFSGSGSGRDFTLTISSLQPEDFATYYCLGSSYSTGSNIFGQGTKVEIKRTVAAPSVFIFPPSDEQLKSGTASVVCLLNNFYPREAKVQWKVDNALQSGNSQESVTEQDSKDSTYSLSSTLTLSKADYEKHKVYACEVTHQGLSSPVTKSFNRGEC
chain 2: not shown

- Mean IC50, neutralization of human IL-31-induced signaling in IL-31RA/OSMR dimerization assay (human IL-31 [2]): 0.142 nM
B6: PRO2199 (bispecific antibody)
chain 1: not shown
chain 2: B5 chain 1 with R14S, R69T

Reference: patent publication EP4019546A1 (Numab Therapeutics AG, dated 2022)
